Measured values taken from US20050106145A1.

What was measured:
human tenascin-C (human) [1] = target: human tenascin-C (human) (UniProt P24821); experiment: BIAcore
human tenascin-C (human) [2] = target: human tenascin-C (human) (UniProt P24821); experiment: ELISA, tenascin 5 µg/ml

human tenascin-C (human), sequence (P24821 23-2201 limits assumed): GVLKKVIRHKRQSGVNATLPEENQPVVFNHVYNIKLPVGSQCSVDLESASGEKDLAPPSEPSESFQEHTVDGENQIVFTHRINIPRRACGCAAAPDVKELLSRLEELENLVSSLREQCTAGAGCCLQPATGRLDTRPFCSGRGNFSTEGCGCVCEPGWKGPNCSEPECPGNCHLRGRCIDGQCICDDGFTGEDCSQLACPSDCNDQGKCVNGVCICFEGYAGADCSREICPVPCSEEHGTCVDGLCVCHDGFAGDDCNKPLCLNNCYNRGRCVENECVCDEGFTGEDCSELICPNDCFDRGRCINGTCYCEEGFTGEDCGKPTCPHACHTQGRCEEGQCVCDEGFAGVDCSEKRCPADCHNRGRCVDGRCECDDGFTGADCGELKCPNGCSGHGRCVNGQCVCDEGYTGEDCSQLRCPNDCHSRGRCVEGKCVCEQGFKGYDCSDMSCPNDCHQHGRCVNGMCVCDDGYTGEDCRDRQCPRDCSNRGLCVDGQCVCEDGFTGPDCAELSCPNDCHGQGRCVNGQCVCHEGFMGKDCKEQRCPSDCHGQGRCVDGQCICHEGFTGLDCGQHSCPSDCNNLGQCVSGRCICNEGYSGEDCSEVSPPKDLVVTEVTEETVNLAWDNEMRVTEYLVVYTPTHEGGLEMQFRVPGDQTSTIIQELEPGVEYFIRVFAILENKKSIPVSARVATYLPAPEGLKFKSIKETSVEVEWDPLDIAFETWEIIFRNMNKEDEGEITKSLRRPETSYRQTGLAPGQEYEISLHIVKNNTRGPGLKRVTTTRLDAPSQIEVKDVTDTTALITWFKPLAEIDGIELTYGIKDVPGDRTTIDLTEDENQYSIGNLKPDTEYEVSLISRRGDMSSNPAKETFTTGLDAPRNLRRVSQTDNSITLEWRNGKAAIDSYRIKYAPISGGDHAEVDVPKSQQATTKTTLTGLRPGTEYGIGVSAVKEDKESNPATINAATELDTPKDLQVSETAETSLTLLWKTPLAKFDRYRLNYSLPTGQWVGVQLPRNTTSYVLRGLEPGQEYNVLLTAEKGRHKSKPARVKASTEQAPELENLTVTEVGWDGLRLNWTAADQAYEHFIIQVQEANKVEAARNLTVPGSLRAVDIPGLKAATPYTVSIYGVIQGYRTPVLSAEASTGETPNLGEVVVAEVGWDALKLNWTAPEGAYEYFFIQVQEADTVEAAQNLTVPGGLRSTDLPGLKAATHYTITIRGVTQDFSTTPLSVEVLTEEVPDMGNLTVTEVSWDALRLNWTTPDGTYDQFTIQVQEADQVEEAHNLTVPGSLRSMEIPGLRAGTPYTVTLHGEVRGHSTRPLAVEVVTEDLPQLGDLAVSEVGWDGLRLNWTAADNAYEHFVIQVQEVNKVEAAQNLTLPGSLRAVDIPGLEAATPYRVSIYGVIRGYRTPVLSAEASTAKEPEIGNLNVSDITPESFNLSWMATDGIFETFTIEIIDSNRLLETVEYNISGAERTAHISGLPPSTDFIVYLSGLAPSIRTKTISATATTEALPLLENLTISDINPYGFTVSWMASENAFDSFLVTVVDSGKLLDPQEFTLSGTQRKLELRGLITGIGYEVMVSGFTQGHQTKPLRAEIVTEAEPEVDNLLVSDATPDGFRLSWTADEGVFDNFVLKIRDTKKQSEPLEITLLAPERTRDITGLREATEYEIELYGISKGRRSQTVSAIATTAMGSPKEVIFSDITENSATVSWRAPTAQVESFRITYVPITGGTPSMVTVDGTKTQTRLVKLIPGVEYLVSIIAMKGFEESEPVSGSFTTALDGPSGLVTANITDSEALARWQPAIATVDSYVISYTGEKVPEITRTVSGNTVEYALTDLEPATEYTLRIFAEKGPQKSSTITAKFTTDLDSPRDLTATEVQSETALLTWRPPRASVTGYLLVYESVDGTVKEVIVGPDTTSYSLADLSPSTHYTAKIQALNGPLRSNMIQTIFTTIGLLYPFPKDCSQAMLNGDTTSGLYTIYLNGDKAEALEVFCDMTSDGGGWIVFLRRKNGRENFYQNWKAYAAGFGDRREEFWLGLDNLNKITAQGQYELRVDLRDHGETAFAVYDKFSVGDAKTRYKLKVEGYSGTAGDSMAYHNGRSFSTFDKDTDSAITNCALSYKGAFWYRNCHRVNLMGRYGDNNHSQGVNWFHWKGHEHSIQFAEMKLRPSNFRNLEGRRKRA

BC4 anti-tenascin monoclonal antibody showed a Kd (human tenascin-C (human) [1]) of 4.9 nM and an EC50 (read off the curve) (human tenascin-C (human) [2]) of 0.2 µg/mL.
